Results on 16 sequences are retold here after the nanobody polyreactivity screen of Harvey et al. (2022).

The data set in a line: yeast display, Sf9 membrane polyspecificity reagent, FACS + sequencing; frameworks hold sequencing errors. The gist of the method: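 A nanobody's polyreactivity label depends on the gate it was sorted from. Yeast display cells were stained with 10% biotinylated, detergent-solubilized Sf9 membrane reagent for 1 hour at 4 °C, enriched on streptavidin microbeads and sorted by FACS. The low and high (top ~1%) gates were set on anti-HA fluorescence for expression and streptavidin fluorescence for reagent binding.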
With “QVQLVESGGGLVQAGGSLRLSCAASGSIFYAYAMGWYRQAPGKEREFVAVISYSGGSTYYADSVKGRFTISRDNAKNTVYLQMNSLKPEDTAVYYCAARYRRPYSYYYWGQGTQVTVSS”, the “polyreactivity (PSR sort gate)” value is given as “high polyreactivity”.

With “QVQLVESGGGLVQAGGSLRLSCAASGSIFYAYAMGWYRQAPGKERELVAVISRGGITNYADSVKGRFTISRDNAKNTVYLQMNSMKPEDTAVYYCAAATSAWGYLRRYGYWGQGTQVTVSS”, the “polyreactivity (PSR sort gate)” value is “low polyreactivity”.

Turning to “QVQLVESGGGLVQAGGSLRLSCAASGSIFYAYAMGWYRQAPGKESELVAVISRGGITNYADSVKGRFTISRDNAKNTVYLQMNSLKPEDTAVYYCAAATSAWGYLRRYGYWGQGTQVTVSS”, the “polyreactivity (PSR sort gate)” value is given as “low polyreactivity”.

As to “QVQLVESGGGLVQAGGSLRLSCAASGSIFYDKAMGWYRQAPGKERELVAVISNSGRTYYADSVKGRFTISRDNAKNTVYLQMNSLKPEDTAVYYCWGQVTQVTVSS”, the “polyreactivity (PSR sort gate)” value is on record as “low polyreactivity”.

“QVQLVESGGGLVQAGGSLRLSCAASGSIFYDYMGWYRQAPGKERELVAVISYSGSSTYYADSVKGRFTISRDNAKNTVYLQMNSLKPEDTAVYYCAARNVNGWDYDYWGQGTQVTVSS”: the “polyreactivity (PSR sort gate)” value is given as “low polyreactivity”.

As to “QVQLVESGGGLVQAGGSLRLSCAASGSIFYDYVMGWYRQAPGKERELVAAISVSGGRTYYADSVKGRFTISRDNAKNTVYLQMNSLKPEDTAVDYCAAKYPAGGRNYDYWGQGTQVTVSS”, the “polyreactivity (PSR sort gate)” value is listed as “high polyreactivity”.

Take “QVQLVESGGGLVQAGGSLRLSCAASGSIFYENTMGWYRQAPGKEREFVAAISRSGGSTYYADSEKGRFTISRDNAKNTVYLQMNSLKPEDTAVYYCAAKSRRYHHEYYYWGQGTQVTVSS”: the “polyreactivity (PSR sort gate)” value is reported as “high polyreactivity”.

Turning to “QVQLVESGGGLVQAGGSLRLSCAASGSIFYFNAMGWYRPAPGKERELVAAINISGSSTSYADSVKGRFTISRDNAKNTVYLQMNSLKPEDTAVYYCAAEDEPRILIVRVWDYYWGQGTQVTVSS”, the “polyreactivity (PSR sort gate)” value was “low polyreactivity”.

Regarding “QVQLVESGGGLVQAGGSLRLSCAASGSIFYFNAMGWYRQAPGKERELVAAISTSGGSTYADSVKGRFTISRDNAKNTVYLQMNSLKPEDTAVYYCAADFLTSRSRTFDYWGQGTQVTVSS”, the “polyreactivity (PSR sort gate)” value is reported as “low polyreactivity”.

Take “QVQLVESGGGLVQAGGSLRLSCAASGSIFYFNAMGWYRQAPGKERELVAAITASGGRTYYADSVKGRFTISRDNAKNTVYLQMNSLKPEDTAVYYCNAYRPWSWWGEMDYWGQGTQVTVSS”: the “polyreactivity (PSR sort gate)” value is “high polyreactivity”.

Turning to “QVQLVESGGGLVQAGGSLRLSCAASGSIFYFNAMGWYRQAPGKERELVADISWSGGESTYYADSVKGRFTISRDNAKNTVYLQMNSLKPEYTAVYYCAADYWSPYVYVYWGQGTQVTLSS”, the “polyreactivity (PSR sort gate)” value is given as “low polyreactivity”.

For the sequence “QVQLVESGGGLVQAGGSLRLSCAASGSIFYFNAMGWYRQAPGKERELVADITSGGSTYYADSVKGRFTISRDNAKNTVYLQMNSLKPEDTAVYYCNAALPVTRSERYGSDYWGQGTQVTVSS”, the “polyreactivity (PSR sort gate)” value was “low polyreactivity”.

With “QVQLVESGGGLVQAGGSLRLSCAASGSIFYGFDMGWYRQAPGKERELVATISWSSGSSTYYADTVKGRFTISRDNAKNTVYLQMNSLKPEETAVYYCAVDFAIGYRYQGRVDYWGQGTQVTVSS”, the “polyreactivity (PSR sort gate)” value is on record as “low polyreactivity”.

“QVQLVESGGGLVQAGGSLRLSCAASGSIFYGNAMGWYRQAPGNERESVAGITGSGSRTYYADSVKGRFTISRDNAKITVYLQMNSLKAEDTAVYYCARLTRTSRGLYDYWGQGTQVTVSS”: the “polyreactivity (PSR sort gate)” value was “high polyreactivity”.

In the case of “QVQLVESGGGLVQAGGSLRLSCAASGSIFYGNTMGWYRQAPGKEREFVAAINKSDDSTYYADSVKGRFTISRDNAKNTVYLQMNSLKPEDTAVYYCAADYLGRFDYNYWGQGTQVTVSS”, the “polyreactivity (PSR sort gate)” value was “low polyreactivity”.

“QVQLVESGGGLVQAGGSLRLSCAASGSIFYGNTMGWYRQAPGKERELVAGITRGGGSTYYADSVKGRFTISRDNAKNTVYLQMNSLKPEDTAVYYCAATFPYHDGDYWGQGTQVTVSS”: the “polyreactivity (PSR sort gate)” value is “low polyreactivity”.
